Results: the supplement of paper PMC7877785
± gives the uncertainty stated by the source.

Experiment: self-splicing fitness, log relative to wild type (ln ratio); higher = more splicing; Tetrahymena group I intron in knt gene, E. coli kanamycin selection, DiMSum; sequences stand for … in CUCUCU…GGAGGGAAAAGUUAUCAGGCAUGCACCUGGUAGCUAGUCUUUAAACCAAUAGAUUGCAUCGGUUUAAAAGGCAAGACCGUCAAAUUGCGGGAAAGGGGUCAACAGCCGUUCAGUACCAAGUCUCAGGGGAAACUUUGAGAUGGCCUUGCAAAGGGUAUGGUAAUAAGCUGACGGACAUGGUCCUAACCACGCAGCCAAGUCCUAAGUCAACAGAUCUUCUGUUGAUAUGGAUGCAGUUCACAGACUAAAUGUCGGUCGGGGAAGAUGUAUUCUUCUCAUAAGAUAUAGUCGGACCUCUCCUUAAUGGGAGCUAGCGGAUGAAGUGAUGCAACACUGGAGCCGCUGGGAACUAAUUUGUAUGCGAAAGUAUAUUGAUUAGUUUUGGAGUACUCGUGGUCG
Procedure, shortened: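 Library with all eight P1ex-region intron nucleotides randomised, intron inside the knt kanamycin-resistance gene on pET-22b(+), in E. coli BL21(DE3). Cells grew overnight at 37°C or 30°C on LB agar with or without 25 μg/mL kanamycin (plus 100 μg/mL carbenicillin, 50 μM IPTG, 0.2% rhamnose), in six replicate transformations. Pooled colonies were amplicon-sequenced on Illumina HiSeq 2500. DiMSum fitness is the error-weighted combination of wild-type-normalised replicate fold changes, kanamycin versus none.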

Sequence	self-splicing fitness (ln) (30 °C)	self-splicing fitness (ln) (37 °C)
UGAUAGCAAUAUUACGUGCA	-0.486 ± 0.054	0.164 ± 0.076
UGAUAGCAAUAUUACGUGGU	-2.4 ± 0.21	-2.73 ± 0.23
UGCAAGCAAUAUUACGACCG	0.118 ± 0.086	0.563 ± 0.13
UGCAAGCAAUAUUACGACGA	-0.804 ± 0.074	0.648 ± 0.087
UGCAAGCAAUAUUACGAGGU	-3.41 ± 0.23	-2.26 ± 0.17
UGCAAGCAAUAUUACGAGUG	-1.42 ± 0.052	-0.498 ± 0.062
UGCAAGCAAUAUUACGAUAU	-3.42 ± 0.2	-0.49 ± 0.1
UGCAAGCAAUAUUACGCAAU	-3.55 ± 0.4	-2.06 ± 0.32
UGCAAGCAAUAUUACGCACG	-2.14 ± 0.3	-0.955 ± 0.13
UGCAAGCAAUAUUACGCGAG	-3.25 ± 0.15	-2.36 ± 0.16
UGCAAGCAAUAUUACGCGGU	-3.01 ± 0.23	-2.25 ± 0.21
UGCAAGCAAUAUUACGGAUA	-1.68 ± 0.11	-0.698 ± 0.12
UGCAAGCAAUAUUACGGCCA	-0.252 ± 0.08	1.07 ± 0.14
UGCAAGCAAUAUUACGGCUG	-2.12 ± 0.14	-1.14 ± 0.18
UGCAAGCAAUAUUACGGUUU	-2.53 ± 0.071	-1.28 ± 0.071
UGCAAGCAAUAUUACGUAAA	-1.9 ± 0.087	-1.01 ± 0.12
UGCAAGCAAUAUUACGUAAC	-4.96 ± 0.38	-0.276 ± 0.14

Sequence	self-splicing fitness (ln) (30 °C)	self-splicing fitness (ln) (37 °C)
UGCAAGCAAUAUUACGUACU	-0.936 ± 0.13	0.0223 ± 0.17
UGCAAGCAAUAUUACGUCAG	-1.98 ± 0.088	-0.64 ± 0.087
UGCAAGCAAUAUUACGUGGG	-3.73 ± 0.17	-2.93 ± 0.19
UGCCAGCAAUAUUACGACAU	-3.366 ± 0.021	-1.9 ± 0.035
UGCCAGCAAUAUUACGACGC	-3.03 ± 0.22	-1.68 ± 0.25
UGCCAGCAAUAUUACGACGG	-3.23 ± 0.12	-1.42 ± 0.13
UGCCAGCAAUAUUACGACUG	-2.79 ± 0.12	-2.14 ± 0.13
UGCCAGCAAUAUUACGAGAA	–	-0.955 ± 0.25
UGCCAGCAAUAUUACGAGAC	-3.05 ± 0.2	-2.05 ± 0.26
UGCCAGCAAUAUUACGAGCC	-0.839 ± 0.087	0.369 ± 0.15
UGCCAGCAAUAUUACGCAAA	-2.41 ± 0.19	-1.5 ± 0.17
UGCCAGCAAUAUUACGCAUA	-1.67 ± 0.088	-1.26 ± 0.087
UGCCAGCAAUAUUACGCAUC	-3.52 ± 0.25	-2.2 ± 0.2
UGCCAGCAAUAUUACGCCAA	-1.24 ± 0.15	-1.8 ± 0.21
UGCCAGCAAUAUUACGCGGU	-2.55 ± 0.3	-2.45 ± 0.25
UGCCAGCAAUAUUACGCUAG	-4.69 ± 0.39	-1.35 ± 0.22
